Substitutions are numbered along the chain they refer to.
Columns and labels:
[1] = target: recombinant human IL-5 (human, UniProt P05113 20-134); assay: Biacore, Ab on Protein A chip
[2] = target: recombinant human IL-5 (human, UniProt P05113 20-134); assay: Biacore
[3] = target: Cynomolgus IL-5 (cynomolgus monkey); assay: cell-based or functional assay

B1: 3A5.211 (antibody, human IgG4 S228P, lambda, name in Kabat numbering, V domains shown)
VH: QVQLQESGPGLVKPSQTLSLTCTVSGGSISNGGYYWSWIRQHPGKGLEWIGYIYYSGSTYYNPSLKSRVTISVDTSKNQFSLKLSSVTAADTAVYYCASLGNWFDYWGQGTLVTVSS
VL: SYVLTQPPSVSVAPGQTARITCGGNNIGSKNVYWYQQKPGQAPVLVVHDDSDRPSGIPERFSGSNSGNTATLTISRVEVGDEADYSCQAWDSSSDHVVFGGGTKLTVLG
proportional kd vs parent 3A5.040 [1]: 1 ratio

B2: 3A5.508 (antibody, human IgG4 S228P, lambda, name in Kabat numbering, V domains shown)
VH: B1 VH with G101A
VL: B1 VL with A89V
proportional kd vs parent 3A5.040 [2]: 0.8

B3: 3A5.046 (antibody, human IgG4 S228P, lambda)
heavy: QVQLQESGPGLVKPSQTLSLTCTVSGGSISNGGYYWSWIRQHPGKGLEWIGYIYYSGSTYYNPSLKSRVTISVDTSKNQFSLKLSSVTAADTAVYYCASLGNWFDYWGQGTLVTVSSASTKGPSVFPLAPCSRSTSESTAALGCLVKDYFPEPVTVSWNSGALTSGVHTFPAVLQSSGLYSLSSVVTVPSSSLGTKTYTCNVDHKPSNTKVDKRVESKYGPPCPPCPAPEFLGGPSVFLFPPKPKDTLYITREPEVTCVVVDVSQEDPEVQFNWYVDGVEVHNAKTKPREEQFNSTYRVVSVLTVLHQDWLNGKEYKCKVSNKGLPSSIEKTISKAKGQPREPQVYTLPPSQEEMTKNQVSLTCLVKGFYPSDIAVEWESNGQPENNYKTTPPVLDSDGSFFLYSRLTVDKSRWQEGNVFSCSVMHEALHNHYTQKSLSLSLG
light: SYVLTQPPSVSVAPGQTARITCGGNNIGSKNVYWYQQKPGQAPVLVVHDDSDRPSGIPERFSGSNSGNTATLTISRVEVGDEADYSCQVWDSSSDHVVFGGGTKLTVLGQPKAAPSVTLFPPSSEELQANKATLVCLISDFYPGAVTVAWKADSSPVKAGVETTTPSKQSNNKYAASSYLSLTPEQWKSHRSYSCQVTHEGSTVEKTVAPTECS
Mean (pM): mean IC50, TF-1.6G4 cell line proliferation assay [3]: 43.8 pM
